Experimental findings from the DeepSol protein solubility set are described below.

The nature of this data set: soluble on expression in E. coli; label from the status in PepcDB or PDB records.
With “MPRALNDRSSALTAQNLIALPERFGCPVWAYDGDIIAERINQLRHFDVIRFAQKACSNIHILRLMREQGVKVDSVSLGEIERALHAGYQPGQEPAEIVFTADLLDQATLLRVTELNIPVNAGSIDMLDQLGQQAPGHPVWLRVNPGFGHGHSQKTNTGGENSKHGIWHEELPRALKKIEHYGLTLVGIHMHIGSGVDYQHLEQVCDAMVQQVITLGHDISAISAGGGLSIPYQFGDDVIDTEHYYGLWNSARERIAAHLGHPVSLEIEPGRFLVAESGVLIAQVRAVKDMGRRHYVLVDAGFNDLMRPAMYGSYHHISLLPADGRDLTSAPLIDTVVAGPLCESGDVFTQQEGGGVETLALPAAVIGDYLVFHDTGAYGASMSSNYNSRPLLPEVLFEKGQPRLIRRRQTIEELIDLERV”, the “soluble on expression in E. coli” value was “not soluble”. As for “MPSKTFLLTHTFKDISKLGEGESYYSDIEIRYNIPWSIQVFKNESFLGLLLNCEKEELLEKKKWSLQVKFTMKLVAVSGKFFQRTVKNEFQNPEGHGMDKFISWENMLRDYVNNDSIVIEINADIVSSSGFFKHKYSPCSQSYSGKSFVLKHNFKNRRFVEAERCFSDIEEHYNVPWRLRIQKYKKGFLGIHLLCEKETCDGRSWSIQCDYELQLISSKGKCYSRHSTFNFEKPGGNYQEVEFINWKVMEEEYMDSDSICVEAHVKICKTQELPCNILSTHRKFVLSHTVRNISSINGGNVYFTDIETRFNVPWKLSFVRQSGFIELYLRCEKKQCLSRTWSIEAEFTLKLVSPHGRSLSLRKIYSFEKSIGNGYSKVMRWDEMKDKYVVDNSIIIEAHVKILNMTGIESETTIKKTSGFTIPVGDMEYSMEKWMEMAFDH”, the “soluble on expression in E. coli” value is “not soluble”. In the case of “MPSLVIQDGGASIIRAVRPEEFAPQAPGKLLAIGRGVYAFLPDPLPPRLEWSLRLIALLDEARGALGELAGLLRQLPNPYLFIRPFIQKEAVLSSRIEGTQAGLLDVYALEAQVPLFPSPKLREDAQEVLNYIRALERGRELLQEIPLSLRLLKEVHAVLLRGVRGGGRAPGEFRRAQNWIGPPGSSLEEARYVPPPPGPMLEALDALERFWHSDHGLPPLVEIALVHYQFEAIHPFLDGNGRMGRLLITLMLLERGLLPEPALYLSAYFERHRTLYYDLLLGVSQRGAWEDWLAFFLEGVRTEAKDVAERARRLLDLWREWRERYGRKGGSAHILGLLDLLFERPVLTVPLVKDRLGITHAWANRLVQRLEEDGILTPVSERKRNRLYAAKEILEILEEARNA”, the “soluble on expression in E. coli” value is “soluble”.

On to “MPSTSMIEDRSEIERRRFEYLDHPADIQLHSWGSTMEEAFEACLVSMFGYMTDLAKVDEMYEFYWKASGDSLDGLLFQFLDEALNSFHAEPCFVAKRVEILRFDKKKFEIEFRGWGESFDTSKHETEADIKSPTYSNMQINEKPERCDIYVIVDI”, for which the “soluble on expression in E. coli” value is recorded as “not soluble”. With “MPSYKLTYFDACGFGESARMLFHLGGVPYEDVRLPTINAVPGFQSDEFSALKDKTPFGRFTVLSIDGFDLAQSSAIHRYLARKFGYAGKTPEDEAFADSIVDQFNEYYASLHPYRDAVKTGKTMEEVKQIHDKVYIPAKNLMFKILTRILKENKSGFLVGDGLTWADLVVADHLYTLTNLKELDPEDPIHLTLRKFQEKIFNLTELKDYIETRPVTLV” the entry was “not soluble”; with “MPTLKVAYIPEHFSTPLFFAQQQGYYKAHDLSIEFVKVPEGSGRLINLLNSNEVDIAIGLTEAFIADIAKGNENIHVLDTYVKSPLLWAVSTGSNRDDVTDAKQLKRIGVSRIGSGSYVMSFVLAHQLGVPSFDQFQVLSNFKNLRDSVNLKDGVEGSDAFMWEYFTSKKYYDNHEIKQIDQIYTPWSSWVVATSSDSLQAKSDVIKNFIDAVNQGIQYYNEHVDEAIEYISSNLDYSAEDAKEWTKTVEFNSRIGKTPLDWDTIVVKTKDTLKLAGVLAESDDVILKRLNSNVKKTNL”, “soluble”; with “MPTVNVIGAGLAGSEAAWQIAQAGVDVNLYEMRPVKMTPAHHTSNFAELVCTNSLRANQITNAVGLLKEEMRQLHSIIIQSADATAVPAGGALAVDREPFSELVTQKLTSNSHIHVVNEELSAFPDGITVVATGPLTAPGLAQAIVDLNGEAGLSFFDAAAPILDANTINEDIVYKKSRYDRGEAAYLNCPMTKDEFLAFYQALVSAEVAEGHDFEKMTVFEGCMPIEVMAKRGIKTMLFGPLKPVGLEDPRTGKEPYAVVQLRQDNAAASLYNMVGFQTHLKWGEQKRVFRLIPGLENVQIVRYGVMHRNTFMKSPVVLEPTYASKRRPDLFFAGQMTGVEGYVESAASGLIAGINATRMALGETPVIFPETTAMGSMAHYITHTSAHHFQPMNANFGIMPALTVKIRNKKERNQQLADRALKDLATFQAGMNRVEQVLEHHHHHH”, “soluble”. Then “MPVAISLPTSSTSHFFPRRRGHANHRYQRFSGAQSSTEDPYIRKNQTGVIIIGAGLAGLAAANQLTSKRIPFLLLEASDGVGGRVRTDIVDGFFLDRGFQIFITAYPEAKKLLDYEALDLQRFYAGAKVFYGGKFHTVADPLRHFWDSVASLANPIGSVVDKGLIALTRARVLIKSDEEILTAADEVPTIDLLRKIGFSETILDRFFRPFFGGIFFDRDLETTSKLFDFVFRCLALGENTLPAMGIGEISNQLAAKLPAKSVLLNTRVASIEYPNGSGSDPPSVRLQDGSVMKAELGVIIAVEQPEVNKLLDGIRDPVITKPARSTICLYFTAEPNQIPVQDPVLFLNGSNSGIINNMFFATNVARTYAPPGKALVSVSLIGLFEDRTDDDLAAEVLRELSGWFGESPVMSWKHLKTYRIQFAQPNQCPPTDLVKSPRVGSGLYLSGDYMTSATFDGALVSGRRAVEVLLRETGLIK”, with “soluble”; and “MPVAIVTGASSGIGRAAALLLARNNYKLSLTGRNVAALNELAGQIVSAGSDKNDVLVTAVELASEEAPKTIVDATVQKFGRIDTLINSAGILRAGPVLDSGIEVYDELMNVNVRSLIRLTRAALPHIITTKGTVVNVSSINGPCPFPNVTYYCMSKSAVDQFTKCLALEMAPNGVRVNAVCPGVTVTNLHRTSGQDETTYSAFLERSKTTHALGRPGDANEVAEAIYFLASEKSSFTTGELLRVDGGRGIMHPR”, with “soluble”. With “MPVDTKTVLVVRHGTAGRRSRYKGDDRKRPLDKRGRAQAEALVAQLMAFGATTLYAADRVRCHQTIEPLAQELDQLIHNEPLLTEEAYAADHKAARKRLLEIAGRPGNPVICTQGKVIPGLIEWWCERAKVRPETTGNRKGSTWVLSLSDGELVGADYLSPPDEKLEHHHHHH” the entry was “not soluble”.

For “MPVEITVKELLEAGVHFGHERKRWNPKFARYIYAERNGIHIIDLQKTMEELERTFRFIEDLAMRGGTILFVGTKKQAQDIVRMEAERAGMPYVNQRWLGGMLTNFKTISQRVHRLEELEALFASPEIEERPKKEQVRLKHELERLQKYLSGFRLLKRLPDAIFVVDPTKEAIAVREARKLFIPVIALADTDSDPDLVDYIIPGNDDAIRSIQLILSRAVDLIIQARGGVVEPSPSYALVQEAEATETPEGESEVEA”, the “soluble on expression in E. coli” value was “soluble”. Consider “MPVFKRYMRSPRLKAKHVMSTPPVTIEVGRSIAEAARLMAERGVGSLIVVDKQGLVKGILTERDIINSLASGKACAEGKVEDIMSRNPIVASPDDDLEIIIEKMRDMNIRHIPVIDEDGRPLGMISVRDIIDLGVSALKLFVE”, for which the “soluble on expression in E. coli” value is “soluble”. As for “MPVFRRHASQNCASIPPMMLFKRPDTETLYFALVNKDPAYEGVAYVCVTSTKIFCRFTCTARKPKIENCRFRETITECLEAGFRPCKRCKPMLSYGTPDGTVTALLTALENEPARRWREEDVVALGHDPSTVRRSFKRRFGMSFLEIARLRRVGDAAESLASGEAVIGAQIDAGYESGSGFRSAINQLFGTSPAAMKGRGFLKGDWIDTPIGPMLAVADDHALHLLEFADRPALPAELKRLKARTGADMVLGRTAVTGQIAAELAAYFAGRSGSFETRLAGHGTPFERDVWRNLREIPAGEIVSYSSLATAMERPTAVRAVARANGANQLAIVVPCHRVLGADGSLTGYGGGLWRKKWLIEHERRMARGQMLGMPLASLEHHHHHH”, the “soluble on expression in E. coli” value is “not soluble”. “MPVGRKEQIVDCRAVMGLGEGGGLAQRGTFAEGLRNDVVVVAMSPGRRHITKPVCEITYGIREAGIQTSVLVLDAGGGIPSDAPQGSLGSTFGLKPEEAKQVNRHKLCVIHFGNVKSHIIYKARLFLKYVDIPTIIVCQTPVDMEDFAAIGIKTKNVMPLESKTEGKIVEIITGVIRGESAPQKKIDEIIESIKKHLGLEHHHHHH”: the “soluble on expression in E. coli” value is reported as “not soluble”. In the case of “MPVLGQIWELSDSQKVGSLDKRGAFVAFKLVAAAQQGKPVANSSLYDSSLQPPRFAPPVPPANMQHHFQPSFPSVGRAPPVPPPPHPSHPYSISSQQSSPAHPSSAFPPQWPITPTDQAKYDSIFQSLNPVNGKLSGAHVRPVLMNSGLDAHALARIWELSDQDKDGNLDRIEMSVALHLVYRSLQSDPVPAQLPPNLIHPSKAMYAHSSPNFAAPPHPPRPMMGSRAGSVTSLDDVNMSQSYSATMPRAYPPQPGRAYSAQAHVNGSRTSGASTPISASHSIHSFPAGEWPINTGDYADQFAQTDTNKDGLVDGMDMRAPMMTTGLSAQILAHVWALADIKKCGQLNLEQFALTMHLLDMAKRGESIPSELPLHLIPPSFRPPTEPSALHHPAQSVSTPQLPEATSMEIKEALEGENEEMKQLAESIQSMLVERKTAEEAVLQLEADMTIKNSSIKNLQVELATLESTVKQLERQKGEATRRLADYDTQIEQLESACKAQKETKEDTEKRMQQIDEDAKNAEDCKANDEKEMEELKKEIEMLDNQFKTVRGEIVKETSQREQKVAELTTLERKEARDQIQMEKLDAAIENTTKLTEQVSDAVEKSEEEMVQILRSQQRLLSTVIDQSLLSDDTVYGETAGTSSQNHVQQPPDPFASARANPAADPFAQVDQFGSSGHFDAAFPTDPFAQGGFPSDSGFAQSAPAKPAPPRPAPPKSARETPVNDPFAPSQGQSTQPAGFADFADFGSAFN”, the “soluble on expression in E. coli” value is “not soluble”. In the case of “MPVLSIIACGMLEDELVHVLSKDCELKQLIVVENGNNSGFLRKLRAGKCIPRTIPLDRVQMFFKTGFNPDFETLAKFLAPFPFLGKVCEKMNEKAGQQVSVVVNLLRLGLHADLELLKSEVFRNIREMAAFSDGILIFYGTCGHVLGELEKDFIDLGCPLFFLKDKAGEIVEDCISTALGGNEAYARAMLACRGKGTIYLTPMWASSWKNFEKGSGSKDLNNRYLKNSRYCLAVKIETGISYEPDFHQNVQEFARTFGMKTITLKGSSEITEQGYFDARKALVKNSDCLPKNHQDMEFLEHHHHHH”, the “soluble on expression in E. coli” value is listed as “not soluble”. “MPVTLSFGNRHNYEINHSRLARLMSPDKEEALYMGVWDRFKDCFRTHKKQEVLEVLYTLIHGCERENQAELNVDITGMEKIHAFTQLKEYANPSQQDRFVMRFDMNQTQVLFEIDGKVIDKCNLHRLLNVSENCIFKVMEEDEEELFLKICIKYGEKISRYPELLEGFANKLKDAVNEDDDVKDEVYKLMRSGEDRKMECVEWNGTLTEEEKNKLRCLQMGSFNITTQFFKIGYWELEGEVLFDMVHPTLSYLLQAYKPSLSSDLIETNTMLFSDVLNKDYDDYQNNKREIDAILRRIYRSHNNTLFISEKSSCRNMLI”: the “soluble on expression in E. coli” value is “not soluble”.

Regarding “MPVVIIVEHPRFISSAGPAVKGDTGQIMKYEKTKEFPHTKKFKAICYGAMMHPKRACKLTEQPTMTKQKRKNTFLTAYYRAKEICMIYSHIFINKLPKQKLTFKQFYVKK”, the “soluble on expression in E. coli” value is “not soluble”. Take “MPVVTAVGRRRGFAMPWVSTARSGAVMLANYSAGVCGRVSSPGLNVRKMCLKANTPGAVTWLDTPKRFLSTQTASRCMAVNSSDVVTGRIDPQVLHTPLNTDVDGYAHAMHSSINSGPLEYLPATFSVFPALGDVGDLGGGVGAATYALDRLSNMRSGACVGGGESPWRSLMT”: the “soluble on expression in E. coli” value is listed as “not soluble”.
